Among the data in doi:10.1101/2025.09.22.677689 are percent decrease of TPX2 bound importin α values, retold here.

The assay deals with preformed TPX2-NLS - importin α ΔIBB complex (mouse) (UniProt A2APB8). The experiment in a line: pull-down; competition: GST-TPX2 NLS on magnetic glutathione beads first incubated with importin α ΔIBB, washed, then increasing concentrations of CFDP1 proteins in transfer buffer, 1 h at 4°C; SDS-PAGE with Coomassie stain or immunoblot.

Consider “CFDP1 basic C-terminal fragment (aa 150-295), HIS tagged (from UniProt O88271 150-295) (domain or fragment)”, for which the percent decrease of TPX2 bound importin α amounted to 11%.
